In patent publication US6051418:

Assays:
[1] = biological target: Factor VIII dB695 (human) (UniProt P00451)
[2] = biological target: Factor VIII dB695-HCII (human)
[3] = biological target: Factor VIII obtained from plasma

thrombin (enzyme)
second order rate constant of activation by thrombin (M^-1 s^-1 × 10^-6) [1]: 3e-06 M⁻¹ s⁻¹
second order rate constant of activation by thrombin (M^-1 s^-1 × 10^-6) [2]: 2.32e-05 M⁻¹ s⁻¹
second order rate constant of activation by thrombin (M^-1 s^-1 × 10^-6) [3]: 2.1e-06 M⁻¹ s⁻¹
